From patent US20190062438A1 (CSL, published 2019) come the findings set out here.

Experiment [1] concerns the target T1, soluble Homo sapiens CD131 comprising a C-terminal 6xHis tag (human, UniProt P32927 17-438).
T1 construct: truncated after Ser438, C-terminal 6xHis; also called shCD131; shβc
T1 sequence: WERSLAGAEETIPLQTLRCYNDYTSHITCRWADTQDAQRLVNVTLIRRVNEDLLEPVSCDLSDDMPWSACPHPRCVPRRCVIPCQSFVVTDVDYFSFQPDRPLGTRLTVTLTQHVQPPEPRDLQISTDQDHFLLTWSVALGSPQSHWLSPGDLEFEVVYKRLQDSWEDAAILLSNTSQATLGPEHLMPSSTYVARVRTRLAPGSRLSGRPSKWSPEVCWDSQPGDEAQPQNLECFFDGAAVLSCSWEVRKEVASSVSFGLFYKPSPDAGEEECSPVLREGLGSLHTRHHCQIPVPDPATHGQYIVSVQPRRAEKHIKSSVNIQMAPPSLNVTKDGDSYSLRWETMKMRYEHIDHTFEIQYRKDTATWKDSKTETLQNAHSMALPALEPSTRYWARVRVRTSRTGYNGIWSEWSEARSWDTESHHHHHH
Nature of the experiment: SPR, Fab over captured shCD131. On the procedure: Binding kinetics were measured using SPR with a BIAcore™ A-100 instrument (GE Healthcare Life Sciences). An anti-C-terminal Hexa-His antibody (3H3) was immobilized on spots 1, 2, 4 and 5 of each flow cell of a CM-5 sensor chip (GE Healthcare Life Sciences) using amine-coupling chemistry (116). […] As shβc is a dimer, kinetics assays were performed with shβc captured on the sensor surface, and purified Fab injected as the analyte. Avidity effects were avoided by the use of Fab rather than whole IgG.
shCD131 was captured on spots 1 and 5 of each flow cell for 2 minutes at a concentration of 0.4 μg/ml. […] For some analysis purified Fab was injected over each flow cell for 3 minutes and dissociation was monitored for a further 10 minutes. Regeneration of the surface was performed after each cycle with a 40 second injection of 25 mM glycine, pH 2.0. The analysis was performed with Fabs at several concentrations between 100 and 0.31 nM, with each concentration analyzed twice and in random order. The analysis was performed at a flow rate of 30 μl/min in HBS-EP buffer (10 mM Hepes, 150 mM NaCl, 3 mM EDTA, 0.005% Tween 20, pH 7.4) at 37° C. Responses from spots 2 and 4 of each flow cell, (in which shβc was not captured, but otherwise treated identically), were subtracted from those of spots 1 and 5 respectively to produce reference subtracted data. Reference subtracted responses from a blank injection comprising buffer alone were subtracted from the resultant sensorgrams to produce double referenced data suitable for kinetic analysis. Double-referenced sensorgrams were fitted using non-linear regression to a model describing 1:1 kinetics, including a term for mass transport limitation. The Rₘₐₓ value was fitted locally to account for slight deviations in the level of sCD131 captured, with association rate (kₐ), dissociation rate (kd) and equilibrium dissociation constant (KD) fitted globally.
(In general: Surface plasmon resonance follows binding to a sensor surface in real time, without labels.)

The target of experiment [2] is T2, human CD131 (human, UniProt P32927 17-897).
T2 sequence: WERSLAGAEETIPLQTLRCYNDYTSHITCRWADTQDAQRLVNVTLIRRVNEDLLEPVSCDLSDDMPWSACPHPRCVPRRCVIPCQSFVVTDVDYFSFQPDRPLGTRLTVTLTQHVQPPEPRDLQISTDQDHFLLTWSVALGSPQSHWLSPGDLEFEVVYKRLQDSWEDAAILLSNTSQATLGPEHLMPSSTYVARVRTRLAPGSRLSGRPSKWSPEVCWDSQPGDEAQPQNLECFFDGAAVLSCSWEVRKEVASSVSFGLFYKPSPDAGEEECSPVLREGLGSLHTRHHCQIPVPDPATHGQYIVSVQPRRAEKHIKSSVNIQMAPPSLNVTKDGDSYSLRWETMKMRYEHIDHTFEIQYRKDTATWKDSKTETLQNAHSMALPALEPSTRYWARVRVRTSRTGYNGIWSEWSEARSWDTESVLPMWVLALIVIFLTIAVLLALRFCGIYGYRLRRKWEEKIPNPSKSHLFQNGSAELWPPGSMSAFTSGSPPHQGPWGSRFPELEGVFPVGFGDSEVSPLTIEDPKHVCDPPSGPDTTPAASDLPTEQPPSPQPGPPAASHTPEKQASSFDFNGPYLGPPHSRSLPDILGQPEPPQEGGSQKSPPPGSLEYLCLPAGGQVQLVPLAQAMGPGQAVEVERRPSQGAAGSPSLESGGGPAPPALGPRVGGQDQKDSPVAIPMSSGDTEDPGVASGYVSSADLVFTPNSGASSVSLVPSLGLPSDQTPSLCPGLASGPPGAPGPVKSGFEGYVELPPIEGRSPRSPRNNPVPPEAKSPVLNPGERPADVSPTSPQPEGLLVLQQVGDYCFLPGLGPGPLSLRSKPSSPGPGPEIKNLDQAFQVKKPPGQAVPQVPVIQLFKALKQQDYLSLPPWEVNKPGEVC
Kind of experiment: cell-based or functional assay.

B1: 9A2-VR19 Fab (Fab, V domains shown)
VH: EVQLLESGGGLVQPGGSLRLSCAASGFTFSHYHMLWVRQAPGKGLEWVSSIRSSGGFTYYADSVKGRFTISRDNSKNTLYLQMNSLRAEDTAVYYCARFYDSFFDIWGQGTMVTVSS
VL: DIQMTQSPSSVSASVGDRVTITCRASQGISSWLAWYQQKPGKAPKLLIYAASSLQSGVPSRFSGSGSGTDFTLTISSLQPEDFATYYCGIPILGPITFGQGTRLEIKR
notes: recombinant Fab
A word on the Kd: it is a measure of binding affinity in units of concentration. B1 showed a dissociation constant (Kd) in experiment [1] of 30 nM.

B2: 9A2-VR47 (antibody, V domains shown)
VH: EVQLLESGGGLVQPGGSLRLSCAASGFTFSHYHMLWVRQAPGKGLEWVSSIRSSGGFTYYADSVKGRFTISRDNSKNTLYLQMNSLRAEDTAVYYCARFYSDHFSPWGQGTMVTVSS
VL: DIQMTQSPSSVSASVGDRVTITCRASQGISSWLAWYQQKPGKAPKLLIYAASSLQSGVPSRFSGSGSGTDFTLTISSLQPEDFATYYCQQANSFPITFGQGTRLEIKR
With B2, the “IC50 GM-CSF, TF-1 proliferation” value in experiment [2] is 27.2 nM.

B3: 9A2-VR1 (antibody, V domains shown)
VH: EVQLLESGGGLVQPGGSLRLSCAASGFTFSHYHMLWVRQAPGKGLEWVSSIRSSGGFTYYADSVKGRFTISRDNSKNTLYLQMNSLRAEDTAVYYCARFYDSFFDIWGQGTMVTVSS
VL: DIQMTQSPSSVSASVGDRVTITCRASQGIRPFMAWYQQKPGKAPKLLIYAASSLQSGVPSRFSGSGSGTDFTLTISSLQPEDFATYYCQQANSFPITFGQGTRLEIKR
For B3, the “IC50 GM-CSF, TF-1 proliferation” value in experiment [2] stood at 294 nM.

B4: 9A2-VR2 (antibody, V domains shown)
VH: EVQLLESGGGLVQPGGSLRLSCAASGFTFSHYHMLWVRQAPGKGLEWVSSIRSSGGFTYYADSVKGRFTISRDNSKNTLYLQMNSLRAEDTAVYYCARFYDSFFDIWGQGTMVTVSS
VL: DIQMTQSPSSVSASVGDRVTITCRASQGQRPFVSWYQQKPGKAPKLLIYAASSLQSGVPSRFSGSGSGTDFTLTISSLQPEDFATYYCQQANSFPITFGQGTRLEIKR
Consider B4, for which the “IC50 GM-CSF, TF-1 proliferation” value in experiment [2] stood at 444 nM.

B5: 9A2-VR48 (antibody, V domains shown)
VH: EVQLLESGGGLVQPGGSLRLSCAASGFTFSHYHMLWVRQAPGKGLEWVSSIRSSGGFTYYADSVKGRFTISRDNSKNTLYLQMNSLRAEDTAVYYCARFYSDHFKPWGQGTMVTVSS
VL: DIQMTQSPSSVSASVGDRVTITCRASQGISSWLAWYQQKPGKAPKLLIYAASSLQSGVPSRFSGSGSGTDFTLTISSLQPEDFATYYCQQANSFPITFGQGTRLEIKR
With B5, the “IC50 GM-CSF, TF-1 proliferation” value in experiment [2] came out at 11.7 nM.

B6: 9A2-VR49 (antibody, V domains shown)
VH: EVQLLESGGGLVQPGGSLRLSCAASGFTFSHYHMLWVRQAPGKGLEWVSSIRSSGGFTYYADSVKGRFTISRDNSKNTLYLQMNSLRAEDTAVYYCARFYSDHFNPWGQGTMVTVSS
VL: DIQMTQSPSSVSASVGDRVTITCRASQGISSWLAWYQQKPGKAPKLLIYAASSLQSGVPSRFSGSGSGTDFTLTISSLQPEDFATYYCQQANSFPITFGQGTRLEIKR
B6: the “IC50 GM-CSF, TF-1 proliferation” value in experiment [2] is 23.4 nM.

B7: 9A2-VR3 (antibody, V domains shown)
VH: EVQLLESGGGLVQPGGSLRLSCAASGFTFSHYHMLWVRQAPGKGLEWVSSIRSSGGFTYYADSVKGRFTISRDNSKNTLYLQMNSLRAEDTAVYYCARFYDSFFDIWGQGTMVTVSS
VL: DIQMTQSPSSVSASVGDRVTITCRASQGLRPFVNWYQQKPGKAPKLLIYAASSLQSGVPSRFSGSGSGTDFTLTISSLQPEDFATYYCQQANSFPITFGQGTRLEIKR
For B7, the “IC50 GM-CSF, TF-1 proliferation” value in experiment [2] was 101 nM.

B8: 9A2-VR4 (antibody, V domains shown)
VH: EVQLLESGGGLVQPGGSLRLSCAASGFTFSHYHMLWVRQAPGKGLEWVSSIRSSGGFTYYADSVKGRFTISRDNSKNTLYLQMNSLRAEDTAVYYCARFYDSFFDIWGQGTMVTVSS
VL: DIQMTQSPSSVSASVGDRVTITCRASQGIRPFVDWYQQKPGKAPKLLIYAASSLQSGVPSRFSGSGSGTDFTLTISSLQPEDFATYYCQQANSFPITFGQGTRLEIKR
In the case of B8, the “IC50 GM-CSF, TF-1 proliferation” value in experiment [2] came out at 122 nM.

B9: 9A2-VR50 (antibody, V domains shown)
VH: EVQLLESGGGLVQPGGSLRLSCAASGFTFSHYHMLWVRQAPGKGLEWVSSIRSSGGFTYYADSVKGRFTISRDNSKNTLYLQMNSLRAEDTAVYYCARFYSDHFAPWGQGTMVTVSS
VL: DIQMTQSPSSVSASVGDRVTITCRASQGISSWLAWYQQKPGKAPKLLIYAASSLQSGVPSRFSGSGSGTDFTLTISSLQPEDFATYYCQQANSFPITFGQGTRLEIKR
For the molecule B9, the “IC50 GM-CSF, TF-1 proliferation” value in experiment [2] came to 46.5 nM.

B10: 9A2-VR27 Fab (Fab, V domains shown)
VH: EVQLLESGGGLVQPGGSLRLSCAASGFTFTHYRVHWVRQAPGKGLEWVSSIRSSGGFTYYADSVKGRFTISRDNSKNTLYLQMNSLRAEDTAVYYCARFYDSFFDIWGQGTMVTVSS
VL: DIQMTQSPSSVSASVGDRVTITCRASQGISSWLAWYQQKPGKAPKLLIYAASSLQSGVPSRFSGSGSGTDFTLTISSLQPEDFATYYCQQANSFPITFGQGTRLEIKR
notes: recombinant Fab
For orientation: koff means the first-order rate constant of dissociation. A low value points to a long-lived complex. By kon is commonly meant the rate constant with which the complex forms. Low values mean slower complex formation, high ones faster complex formation. In experiment [1], B10 returned a Kd of 0.47 nM, a koff of 0.0011 s⁻¹ and an on-rate constant (kon) of 2.3e+06 M⁻¹ s⁻¹.

B11: 9A2-VR26 Fab (Fab, V domains shown)
VH: EVQLLESGGGLVQPGGSLRLSCAASGFTFIHYRVHWVRQAPGKGLEWVSSIRSSGGFTYYADSVKGRFTISRDNSKNTLYLQMNSLRAEDTAVYYCARFYDSFFDIWGQGTMVTVSS
VL: DIQMTQSPSSVSASVGDRVTITCRASQGISSWLAWYQQKPGKAPKLLIYAASSLQSGVPSRFSGSGSGTDFTLTISSLQPEDFATYYCQQANSFPITFGQGTRLEIKR
notes: recombinant Fab
In experiment [1], B11 came in with a Kd of 0.23 nM, a koff of 0.00055 s⁻¹ and a kon of 2.4e+06 M⁻¹ s⁻¹.

B12: 9A2-VR21 Fab (Fab, V domains shown)
VH: EVQLLESGGGLVQPGGSLRLSCAASGFTFMHYRVHWVRQAPGKGLEWVSSIRSSGGFTYYADSVKGRFTISRDNSKNTLYLQMNSLRAEDTAVYYCARFYDSFFDIWGQGTMVTVSS
VL: DIQMTQSPSSVSASVGDRVTITCRASQGISSWLAWYQQKPGKAPKLLIYAASSLQSGVPSRFSGSGSGTDFTLTISSLQPEDFATYYCQQANSFPITFGQGTRLEIKR
notes: recombinant Fab
On to B12, for which the dissociation constant Kd in experiment [1] was 0.39 nM.

B13: 9A2-VR32 Fab (Fab, V domains shown)
VH: EVQLLESGGGLVQPGGSLRLSCAASGFTFSHYHMLWVRQAPGKGLEWVSSISGSVRSTYYADSVKGRFTISRDNSKNTLYLQMNSLRAEDTAVYYCARFYDSFFDIWGQGTMVTVSS
VL: DIQMTQSPSSVSASVGDRVTITCRASQGISSWLAWYQQKPGKAPKLLIYAASSLQSGVPSRFSGSGSGTDFTLTISSLQPEDFATYYCQQANSFPITFGQGTRLEIKR
notes: recombinant Fab
With B13, the affinity in experiment [1], expressed as Kd, was 0.34 nM.

B14: 9A2-VR20 Fab (Fab, V domains shown)
VH: EVQLLESGGGLVQPGGSLRLSCAASGFTFNHYRVHWVRQAPGKGLEWVSSIRSSGGFTYYADSVKGRFTISRDNSKNTLYLQMNSLRAEDTAVYYCARFYDSFFDIWGQGTMVTVSS
VL: DIQMTQSPSSVSASVGDRVTITCRASQGISSWLAWYQQKPGKAPKLLIYAASSLQSGVPSRFSGSGSGTDFTLTISSLQPEDFATYYCQQANSFPITFGQGTRLEIKR
notes: recombinant Fab
With B14, binding in experiment [1] was characterised by a dissociation constant (Kd) of 0.58 nM.
